The subject of one assay is NCI-H2452. Briefly: rTRAIL response, viability assay, NCI-H2452. Format: cell-based, Human. The conditions noted are these: BAP1 Substitution - Missense, homozygous. As for the experimental part: (§1) Manual “single dose” combination screening was undertaken using 96 well formats. Cells were plated on day 1 in previously optimized seeding densities in 180 μl if media. On day 2 20 μl of a 10× concentration of […] was added. Cells were then allowed to grow for 72 hrs or 6 days and fixed at the end of the assay. Drug wells were compared to DMSO treated control wells.
(§2) Single agent high throughput 5 point viability screening was undertaken in 384 well formats using robotic liquid handling with fixing with 4% paraformaldehyde and staining for viability with Syto60 nucleic acid dye (Invitrogen) (see below). Single agent dose response curves were derived for each library of 85-95 drugs according to the experiment used, and log IC50 or area under the curve (AUC) metrics were derived for each library compound in each cell line according to a previously derived formula [18].
(§3) Adherent cell lines were seeded 24 hours before drugging. Cells were trypsinised and counted before seeding at the optimal density for the size of well (96 or 384) and duration of assay. 72 hr after drug treatment cells were fixed with 4% paraformaldehyde for 30 minutes. […] Quantification of fluorescent signal was achieved using excitation/emission wavelength of 630/695 […].

Assay [1] deals with mutated BAP1 xenografts (H226 C91A). Briefly: Xenograft mouse model, H226 BAP1 and H226 C91A tumours. Format: in vivo, mice. The text has this: FIG. 9A is a protocol of an in vivo experiment. FIG. 9B is a box plot showing the weight of tumours extracted from mice injected with mutant or wild-type BAP1-expressing cells after treatment with rTRAIL. […] FIG. 9C is a graph showing that TRAIL treatment reduces the tumour burden (measured by bioluminescence) of mutated BAP1 xenografts when compared to TRAIL treated wild-type BAP1 xenografts or untreated BAP1 mutated and BAP1 wild-type xenografts.
Groups of 8 week old NOD.CB17-Prkdcscid/NcrCrl (NOD SCID) mice (Charles River) were injected on each flank with 1 million cells of luciferase transduced mesothelioma cell lines (H226 BAP and H226 C91A) in a 1:1 mixture of matrigel and media. When tumours were established, as assessed by bioluminescent imaging (IVIS), at 14 days following injection of tumour cells, treatment was began with either vehicle or isoleucine zipper TRAIL (izTRAIL). Either vehicle or izTRAIL were given intraperitoneally once daily at a dose of 600 mcg for the duration of the experiment. Tumour size was assessed at days 0, 13, 19, 26 and 41 using bioluminescent imaging (IVIS). Mice were culled at 42 days and tumours removed and weighed. Six mice per group were treated. Researchers were not blinded in these experiments.

A further assay relates to H2810. Briefly: rTRAIL response, viability assay, H2810. The class given is cell-based, Human. The conditions noted are these: BAP1 Wild-type. The protocol:
as §1, §2, §3

Another assay has as its system H513. Briefly: rTRAIL response, viability assay, H513. The class given is cell-based, Human. As for the experimental part:
as §1, §2, §3

The next assay deals with mesothelioma cell lines. Briefly: Chemical screen, viability of mesothelioma cell lines by BAP1 mutation status. Format: cell-based, Human. As to conditions: 6 day viability assay, 40 ng/ml rTRAIL. As for the experimental part: FIG. 2A is a volcano plot showing drug-genome interactions in MPM. […] The Y-axis denotes adjusted p-Value, X-axis denotes effect size. Size of circle indicates number of mutant lines in cohort tested. […] Met 5a is a mesothelial normal control line. FIG. 2C is a scatter plot showing AUC following 6 day viability assay in response to 40 ng/ml rTRAIL (normalised to DMSO treated control) in cell lines discretized by BAP1 mutation status. […] Two-tailed t-test, p=0.015.
Manual “single dose” combination screening was undertaken using 96 well formats. Cells were plated on day 1 in previously optimized seeding densities in 180 μl if media. On day 2 20 μl of a 10× concentration of media from a stock of drugs was added. […]
A binary event matrix was compiled for the cell lines in the mesothelioma screen by aggregating copy number and exome data and this was used as input classifiers for genomic correlation. Data from this therapeutic screen was then analysed using a Multivariate Analysis of Variance (MANOVA) to annotate the sensitizing effect of genotype on dose response.
Adherent cell lines were seeded 24 hours before drugging. Cells were trypsinised and counted before seeding at the optimal density for the size of well (96 or 384) and duration of assay. […] Quantification of fluorescent signal was achieved using excitation/emission wavelength of 630/695 […].

The test system of the next assay is H2869. Briefly: rTRAIL response, viability assay, H2869. The class given is cell-based, Human. As to conditions: BAP1 Wild-type. As for the experimental part:
as §1, §2, §3

The next assay has as its system H2803. Description: rTRAIL response, viability assay, H2803. The class given is cell-based, Human. As to conditions: BAP1 Wild-type. As for the experimental part: as §1, §2, §3

B1: rTRAIL: recombinant protein that activates the TRAIL pathway by binding to TRAIL-R1 (DR 4) and TRAIL-R2 (DR 5) (protein, UniProt P50591 1-281, looked up)
Tumor necrosis factor ligand …: MAMMEVQGGPSLGQTCVLIVIFTVLLQSLCVAVTYVYFTNELKQMQDKYSKSGIACFLKEDDSYWDPNDEESMNSPCWQVKWQLRQLVRKMILRTSEETISTVQEKQQNISPLVRERGPQRVAAHITGTRGRSNTLSSPNSKNEKALGRKINSWESSRSGHSFLSNLHLRNGELVIHEKGFYYIYSQTYFRFQEEIKENTKNDKQMVQYIYKYTSYPDPILLMKSARNSCWSKDAEYGLYSIYQGGIFELKENDRIFVSVTNEHLIDMDHEASFFGAFLVG
For B1, the rTRAIL response result in the assay with NCI-H2452, in the assay on H2810, in the assay on H513 (BAP1 Wild-type), in the assay on H2869 and in the assay on H2803 was “Resistant” throughout. For the same molecule, the “tumour weight at end of experiment” value in assay [1] (mutated BAP1 tumours vs wild-type BAP1 tumours with TRAIL or vehicle-treated tumours, intraperitoneally once daily 600 mcg) is given as “significantly less”. Besides, in assay [1] (mutated BAP1 xenografts vs wild-type with TRAIL or vehicle-treated xenografts, tracked over 4 weeks), the “tumour burden (bioluminescence)” value is “significantly less”. In addition, the TRAIL sensitivity entry with H513 (BAP1 wild-type and ASXL3 mutant (truncating mutation)) is given as “sensitive”. In addition, the “sensitivity of BAP1 mutant cells compared with wild-type counterparts” value with mesothelioma cell lines is reported as “significantly more sensitive”.

The values above are taken from patent publication US11789012B2, “Cell death biomarker” (UCL Business PLC, priority 2016, dated 2023).
